Article PMC6543813
Like-named read-outs stand apart in the source and are kept apart here.

Legend:
[1] = biological target: recombinant VLDLR(1–8) fragment of the VLDL receptor; assay: SPR
[2] = biological target: (β15–66)2-K^21K^22 mutant fragment (UniProt P02675); assay: ELISA
[3] = biological target: (β15–66)2-K^53K^54K^58 mutant fragment (UniProt P02675); assay: ELISA
[4] = biological target: recombinant (β15–66)2-R^17 mutant with Arg17Glu mutation (UniProt P02675); assay: ELISA
[5] = biological target: (β15–66)2-R^57 mutant fragment (UniProt P02675); assay: ELISA
[6] = biological target: recombinant dimeric (β15–66)2 fragment (UniProt P02675); assay: ELISA
[7] = biological target: (β15–66)2-R^30 mutant fragment (UniProt P02675); assay: ELISA
[8] = biological target: recombinant dimeric (β15–66)2 fragment (UniProt P02675); assay: ELISA; remark: listed apart in the source
[9] = biological target: recombinant VLDLR(1–8) fragment of the VLDL receptor; assay: SPR; remark: listed apart in the source

| Kd [1] [nM] | Substance | further results |
| --- | --- | --- |
| 37 | (β15–66)2-K^21K^22 mutant fragment (from UniProt P02675 45-94) (domain or fragment) | – |
| 6100 | recombinant monomeric β15–64 fragment (from UniProt P02675 45-94) (domain or fragment) | – |
| 6100 | (β15–66)2-R^42R^44K^47 mutant fragment (from UniProt P02675 45-94) (domain or fragment) | – |

More lines, now with the values behind:

| Substance | Kd [1] [nM] | further results |
| --- | --- | --- |
| (β15–66)2-R^42R^44 mutant fragment (from UniProt P02675 45-94) (domain or fragment) | 204 | – |
| (β15–66)2-K^53K^54K^58 mutant fragment (from UniProt P02675 45-94) (domain or fragment) | 250 | – |
| recombinant VLDLR(1–8) fragment of the VLDL receptor (domain or fragment) | – | Kd [2]: 21 nM; Kd [3]: 124 nM; Kd [4]: 7.3 nM; Kd [5]: 6.4 nM; Kd [6]: 13.5 nM; Kd [7]: 6.3 nM; Kd [8]: 34.1 nM |
| (β15–66)2-K^53K^54R^57K^58 mutant fragment (from UniProt P02675 45-94) (domain or fragment) | 11700 | – |
| (β15–66)2-K^21K^22R^23 mutant fragment (from UniProt P02675 45-94) (domain or fragment) | 175 | – |
| recombinant dimeric (β15–66)2 fragment (from UniProt P02675 45-94) (domain or fragment) | 11.1 | Kd [9]: 20.5 nM |
